Source: patent EP4725969A1 (Latticon (Suzhou) Biopharmaceuticals Co., Ltd., dated 2024)
Residue numbers refer to the chain shown, from its start.

B1: 2126-Hu-H51 (antibody, IgG1, name in Kabat numbering, V domains shown)
VH: QVQLVQSGSELKKPGASVKVSCKASGYTFTDYSMHWVRQAPGQGLEWMGWINTETGEPTYADDFKGRFVFSLDTSVSTAYLQISSLKAEDTAVYFCVRVGRFDYAMDYWGQGTTVTVSS
VL: DIQMTQSPSSLSASVGDRVTITCKASQDVYTAVAWYQQKPGKAPKLLINSASYRYTGVPSRFSGSGSGTDFTLTISSLQPEDFATYYCQQHYSTPPTFGGGTKVEIK
notes: IgG1/Cκ
B2: 2126-Hu-H56 (antibody, IgG1, name in Kabat numbering, V domains shown)
VH: B1 VH with F102Y, D103E
VL: B1 VL
notes: IgG1/Cκ
B3: 2126-Hu-L08 (antibody, IgG1, V domains shown)
VH: B1 VH with F102Y
VL: B1 VL with Y53E
notes: IgG1/Cκ
B4: 2126-Hu-H54 (antibody, IgG1, V domains shown)
VH: B1 VH with F102G
VL: B1 VL
notes: IgG1/Cκ
B5: 2126-Hu-L02 (antibody, IgG1, V domains shown)
VH: B1 VH with F102Y
VL: B1 VL with K24R
notes: IgG1/Cκ
B6: 2126-Hu-H53 (antibody, IgG1, name in Kabat numbering, V domains shown)
VH: B1 VH with F102N
VL: B1 VL
notes: IgG1/Cκ
B7: 2126-Hu-L06 (antibody, IgG1, V domains shown)
VH: B1 VH with F102Y
VL: B1 VL with S50A
notes: IgG1/Cκ
B8: 2126-Hu-H52 (antibody, IgG1, name in Kabat numbering, V domains shown)
VH: B1 VH with F102S
VL: B1 VL
notes: IgG1/Cκ
B9: 2126-Hu-H58 (antibody, IgG1, name in Kabat numbering, V domains shown)
VH: B1 VH with F102Y, D103Q
VL: B1 VL
notes: IgG1/Cκ
B10: 2126-Hu-L10 (antibody, IgG1, V domains shown)
VH: B1 VH with F102Y
VL: B1 VL with Y53N
notes: IgG1/Cκ
B11: 2126-Hu-L16 (antibody, IgG1, V domains shown)
VH: B1 VH with F102Y
VL: B1 VL with Y55P
notes: IgG1/Cκ
B12: 2126-Hu-L21 (antibody, IgG1, V domains shown)
VH: B1 VH with F102Y
VL: B1 VL with H91Y
notes: IgG1/Cκ
B13: 2126-Hu-L09 (antibody, IgG1, V domains shown)
VH: B1 VH with F102Y
VL: B1 VL with Y53K
notes: IgG1/Cκ
B14: 2126-Hu-H55 (antibody, IgG1, name in Kabat numbering, V domains shown)
VH: B1 VH with F102Y, D103A
VL: B1 VL
notes: IgG1/Cκ
B15: 2126-Hu-L07 (antibody, IgG1, V domains shown)
VH: B1 VH with F102Y
VL: B1 VL with Y53D
notes: IgG1/Cκ
B16: 2126-Hu-L14 (antibody, IgG1, V domains shown)
VH: B1 VH with F102Y
VL: B1 VL with Y55A
notes: IgG1/Cκ
B17: 2126-Hu-L18 (antibody, IgG1, V domains shown)
VH: B1 VH with F102Y
VL: B1 VL with H91S
notes: IgG1/Cκ
B18: 2126-Hu-L03 (antibody, IgG1, V domains shown)
VH: B1 VH with F102Y
VL: B1 VL with Y30S
notes: IgG1/Cκ
B19: 2126-Hu-L01 (antibody, IgG1, V domains shown)
VH: B1 VH with F102Y
VL: B1 VL with D28S
notes: IgG1/Cκ
B20: 2126-Hu-H60 (antibody, IgG1, name in Kabat numbering, V domains shown)
VH: B1 VH with F102Y, D103Y
VL: B1 VL
notes: IgG1/Cκ
B21: 2126-Hu-H61 (antibody, IgG1, V domains shown)
VH: B1 VH with F102Y, M106F
VL: B1 VL
notes: IgG1/Cκ
B22: 2126-Hu-L11 (antibody, IgG1, V domains shown)
VH: B1 VH with F102Y
VL: B1 VL with Y53Q
notes: IgG1/Cκ
B23: 2126-Hu-L19 (antibody, IgG1, V domains shown)
VH: B1 VH with F102Y
VL: B1 VL with H91A
notes: IgG1/Cκ
B24: 2126-Hu-L12 (antibody, IgG1, V domains shown)
VH: B1 VH with F102Y
VL: B1 VL with Y53S
notes: IgG1/Cκ
B25: 2126-Hu-L17 (antibody, IgG1, V domains shown)
VH: B1 VH with F102Y
VL: B1 VL with Y55Q
notes: IgG1/Cκ
B26: 2126-Hu-H59 (antibody, IgG1, V domains shown)
VH: B1 VH with F102Y, D103S
VL: B1 VL
notes: IgG1/Cκ
B27: 2126-Hu-L05 (antibody, IgG1, V domains shown)
VH: B1 VH with F102Y
VL: B1 VL with N49Y
notes: IgG1/Cκ
B28: 2126-Hu-L15 (antibody, IgG1, V domains shown)
VH: B1 VH with F102Y
VL: B1 VL with Y55E
notes: IgG1/Cκ
B29: 2126-Hu-H57 (antibody, IgG1, name in Kabat numbering, V domains shown)
VH: B1 VH with F102Y, D103G
VL: B1 VL
notes: IgG1/Cκ
B30: 2126-Hu-L13 (antibody, IgG1, V domains shown)
VH: B1 VH with F102Y
VL: B1 VL with Y53T
notes: IgG1/Cκ
B31: 2126-Hu-L04 (antibody, IgG1, V domains shown)
VH: B1 VH with F102Y
VL: B1 VL with A32Y
notes: IgG1/Cκ
B32: Hu2117HK-Mu01 (Fc fusion)
scFv: EVQLVESGGGLVQPGGSLRLSCAASGFTYSSYGMSWVRQAPGKGLEWVASISGGGSYTKYPDSVKGRFTISRDNSKNTLYLQMNSLRAEDTAVYYCARDYAGFFDVWGQGTLVTVSSGGGGSGGGGSGGGGSDIQMTQSPSSLSASVGDRVTITCRSSQSLVHSNGNTYLHWYQQKPGKSPKLLIYKVSNRFSGVPSRFSGSGSGTDFTLTISSLQPEDFATYFCSQSTHVPYTFGQGTKVEIK
notes: scFv-hIgG1 Fc; not shown: human IgG1 Fc
B33: Hu2117HK-Mu06 (Fc fusion)
scFv: B32 scFv with A49S, S180A
notes: as for B32
B34: Hu2117HK-Mu04 (Fc fusion)
scFv: B32 scFv with M136L, S180A
notes: as for B32
B35: Hu2117HK-Mu02 (Fc fusion)
scFv: B32 scFv with S180A, T222V
notes: as for B32
B36: Hu2117HK-Mu03 (Fc fusion)
scFv: B32 scFv with I134V, S180A
notes: as for B32
B37: Hu2117HK-Mu05 (Fc fusion)
scFv: B32 scFv with Y29F, S180A
notes: as for B32
B38: Hu2117HK-Mu07 (Fc fusion, name in Kabat numbering)
scFv: B32 scFv with K59Y, S180A
notes: as for B32
B39: Hu2117HK-Mu08 (Fc fusion)
scFv: B32 scFv with P61A, S180A
notes: as for B32

Each binder was assayed against T1, recombinant human HER2 extracellular domain protein (human, UniProt P04626 23-652) (assay: BLI, Protein A capture).
T1 construct: range 23-652; Range is printed for the immunogen/panning protein; also called ErbB2; recombinant HER2 protein
With B1 the Kd was 23.8 nM, the koff was 0.00244 s⁻¹ and the kon was 103000 M⁻¹ s⁻¹.
B2 was tested, and the Kd was 36.2 nM, the koff was 0.00476 s⁻¹ and the kon was 131000 M⁻¹ s⁻¹.
For B3, the Kd was 6.57 nM, the koff was 0.00062 s⁻¹ and the kon was 94300 M⁻¹ s⁻¹.
For B4, the Kd was 7.96 nM, the koff was 0.000936 s⁻¹ and the kon was 118000 M⁻¹ s⁻¹.
For B5, the Kd was 5.58 nM, the koff was 0.000551 s⁻¹ and the kon was 98700 M⁻¹ s⁻¹.
In the case of B6, the Kd is reported as 46.9 nM, the koff is reported as 0.00475 s⁻¹ and the kon is reported as 101000 M⁻¹ s⁻¹.
Binder B7 has a Kd of 6.63 nM, a koff of 0.000659 s⁻¹ and a kon of 99400 M⁻¹ s⁻¹.
Binder B8 has a Kd of 19.3 nM, a koff of 0.00292 s⁻¹ and a kon of 152000 M⁻¹ s⁻¹.
B9 showed a Kd of 26.3 nM, a koff of 0.00409 s⁻¹ and a kon of 155000 M⁻¹ s⁻¹.
B10 was tested, and the Kd was 5.38 nM, the koff was 0.000558 s⁻¹ and the kon was 104000 M⁻¹ s⁻¹.
For B11, the Kd was 4.38 nM, the koff was 0.000464 s⁻¹ and the kon was 106000 M⁻¹ s⁻¹.
B12 gave a Kd of 1.77 nM, a koff of 0.000193 s⁻¹ and a kon of 109000 M⁻¹ s⁻¹.
B13 gave a Kd of 5.11 nM, a koff of 0.00049 s⁻¹ and a kon of 95900 M⁻¹ s⁻¹.
B14 gave a Kd of 33.7 nM, a koff of 0.00452 s⁻¹ and a kon of 134000 M⁻¹ s⁻¹.
With B15 the Kd was 6.46 nM, the koff was 0.00061 s⁻¹ and the kon was 94300 M⁻¹ s⁻¹.
Binder B16 has a Kd of 6.48 nM, a koff of 0.000666 s⁻¹ and a kon of 103000 M⁻¹ s⁻¹.
B17 gave a Kd of 8.83 nM, a koff of 0.000912 s⁻¹ and a kon of 103000 M⁻¹ s⁻¹.
Work on B18 yielded a Kd of 39.5 nM, a koff of 0.00186 s⁻¹ and a kon of 47100 M⁻¹ s⁻¹.
B19 was tested, and the Kd was 17.5 nM, the koff was 0.00195 s⁻¹ and the kon was 112000 M⁻¹ s⁻¹.
B20 was tested, and the Kd was 23.8 nM, the koff was 0.00361 s⁻¹ and the kon was 152000 M⁻¹ s⁻¹.
B21 gave a Kd of 22 nM, a koff of 0.00201 s⁻¹ and a kon of 91400 M⁻¹ s⁻¹.
For B22, the Kd was 6.25 nM, the koff was 0.000651 s⁻¹ and the kon was 104000 M⁻¹ s⁻¹.
B23 gave a Kd of 8.07 nM, a koff of 0.00085 s⁻¹ and a kon of 105000 M⁻¹ s⁻¹.
B24 gave a Kd of 6.13 nM, a koff of 0.000619 s⁻¹ and a kon of 101000 M⁻¹ s⁻¹.
B25 showed a Kd of 7.91 nM, a koff of 0.000786 s⁻¹ and a kon of 99300 M⁻¹ s⁻¹.
With B26 the Kd was 25.3 nM, the koff was 0.00287 s⁻¹ and the kon was 113000 M⁻¹ s⁻¹.
For B27, the Kd was 13.4 nM, the koff was 0.00139 s⁻¹ and the kon was 104000 M⁻¹ s⁻¹.
With B28 the Kd was 8.29 nM, the koff was 0.000906 s⁻¹ and the kon was 109000 M⁻¹ s⁻¹.
With B29 the Kd was 14.5 nM, the koff was 0.00217 s⁻¹ and the kon was 150000 M⁻¹ s⁻¹.
Work on B30 yielded a Kd of 5.34 nM, a koff of 0.000531 s⁻¹ and a kon of 99500 M⁻¹ s⁻¹.
B31 showed a Kd of 13.9 nM, a koff of 0.000611 s⁻¹ and a kon of 43900 M⁻¹ s⁻¹.

Target: T1, recombinant human HER2 extracellular …
Assay: BLI, Protein A capture
Remark: another data set of the same source
Binder B32 has a Kd of 8.33 nM, a koff of 0.000718 s⁻¹ and a kon of 86200 M⁻¹ s⁻¹.
For B33, the Kd was 8.18 nM and the kon was 82600 M⁻¹ s⁻¹.
B34 showed a Kd of 9.88 nM, a koff of 0.000895 s⁻¹ and a kon of 90600 M⁻¹ s⁻¹.
Work on B35 yielded a Kd of 8.32 nM, a koff of 0.000737 s⁻¹ and a kon of 88600 M⁻¹ s⁻¹.
With B36 the Kd was 8.69 nM, the koff was 0.00071 s⁻¹ and the kon was 81600 M⁻¹ s⁻¹.
For B37, the Kd was 6.76 nM, the koff was 0.000529 s⁻¹ and the kon was 78300 M⁻¹ s⁻¹.
Work on B38 yielded a Kd of 11.7 nM, a koff of 0.000465 s⁻¹ and a kon of 39800 M⁻¹ s⁻¹.
B39 showed a Kd of 6.65 nM, a koff of 0.000495 s⁻¹ and a kon of 74500 M⁻¹ s⁻¹.
